Test results from publication PMC9365698 (2022).
Values belong to the binder of their own block, whether it stands above or below them.

How the values were obtained:
Assay in all cases: SPR
[1] = target: T1, TNR16 (Homo sapiens)
T1 chain: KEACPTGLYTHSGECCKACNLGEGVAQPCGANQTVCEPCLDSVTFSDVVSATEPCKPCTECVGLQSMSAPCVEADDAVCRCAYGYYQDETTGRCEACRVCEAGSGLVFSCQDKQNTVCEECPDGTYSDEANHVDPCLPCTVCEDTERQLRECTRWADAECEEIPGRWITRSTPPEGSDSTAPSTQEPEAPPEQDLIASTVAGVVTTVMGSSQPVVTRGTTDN

[2] = target: FGFR2 (Homo sapiens)
[3] = target: T2, CDH2 (Homo sapiens)
T2 chain: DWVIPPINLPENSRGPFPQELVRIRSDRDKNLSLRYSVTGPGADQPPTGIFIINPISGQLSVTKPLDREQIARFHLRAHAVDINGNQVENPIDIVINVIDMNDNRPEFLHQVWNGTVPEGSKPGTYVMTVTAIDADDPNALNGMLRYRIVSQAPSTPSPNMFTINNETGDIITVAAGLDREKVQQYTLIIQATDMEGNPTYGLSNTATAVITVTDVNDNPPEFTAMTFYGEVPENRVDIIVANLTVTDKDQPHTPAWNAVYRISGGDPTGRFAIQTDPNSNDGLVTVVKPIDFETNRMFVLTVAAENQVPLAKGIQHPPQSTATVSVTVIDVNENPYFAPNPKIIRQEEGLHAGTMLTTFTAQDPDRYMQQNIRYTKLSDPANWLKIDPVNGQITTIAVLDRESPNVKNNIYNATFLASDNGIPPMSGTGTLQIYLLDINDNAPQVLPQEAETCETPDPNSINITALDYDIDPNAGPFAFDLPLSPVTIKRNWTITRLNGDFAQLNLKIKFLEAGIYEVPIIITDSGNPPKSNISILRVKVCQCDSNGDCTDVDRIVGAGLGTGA

[4] = target: T3, PI16 (Homo sapiens)
T3 chain: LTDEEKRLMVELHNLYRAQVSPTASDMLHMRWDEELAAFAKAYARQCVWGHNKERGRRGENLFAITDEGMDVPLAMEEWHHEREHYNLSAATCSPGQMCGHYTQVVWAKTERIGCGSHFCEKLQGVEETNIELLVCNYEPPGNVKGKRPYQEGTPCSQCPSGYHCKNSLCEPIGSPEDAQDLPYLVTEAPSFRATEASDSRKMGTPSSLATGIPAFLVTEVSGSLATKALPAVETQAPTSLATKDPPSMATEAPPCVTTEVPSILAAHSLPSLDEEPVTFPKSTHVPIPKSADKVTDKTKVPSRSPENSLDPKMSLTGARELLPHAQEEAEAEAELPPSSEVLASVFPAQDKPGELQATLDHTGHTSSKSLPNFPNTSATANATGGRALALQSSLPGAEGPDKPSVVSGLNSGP

[5] = target: the molecule itself
[6] = target: T4, PVR (human, UniProt P15151 21-343, biotin on the biotin-acceptor site (enzymatic, co-transfected BirA))
T4 chain: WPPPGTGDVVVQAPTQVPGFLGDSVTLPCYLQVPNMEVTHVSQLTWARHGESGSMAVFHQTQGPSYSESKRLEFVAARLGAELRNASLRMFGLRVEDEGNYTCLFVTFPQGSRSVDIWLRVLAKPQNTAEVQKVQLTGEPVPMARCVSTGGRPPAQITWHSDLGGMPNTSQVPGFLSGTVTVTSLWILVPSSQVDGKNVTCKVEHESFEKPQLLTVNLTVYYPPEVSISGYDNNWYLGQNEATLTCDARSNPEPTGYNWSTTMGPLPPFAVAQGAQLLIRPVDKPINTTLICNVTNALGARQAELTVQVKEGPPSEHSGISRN

[7] = target: JAG1 (human, UniProt P78504 34-1067, biotin on the biotin-acceptor site (enzymatic, co-transfected BirA))
[8] = target: T5, CNTN1 (human, UniProt Q12860 21-993, biotin on the biotin-acceptor site (enzymatic, co-transfected BirA))
T5 chain: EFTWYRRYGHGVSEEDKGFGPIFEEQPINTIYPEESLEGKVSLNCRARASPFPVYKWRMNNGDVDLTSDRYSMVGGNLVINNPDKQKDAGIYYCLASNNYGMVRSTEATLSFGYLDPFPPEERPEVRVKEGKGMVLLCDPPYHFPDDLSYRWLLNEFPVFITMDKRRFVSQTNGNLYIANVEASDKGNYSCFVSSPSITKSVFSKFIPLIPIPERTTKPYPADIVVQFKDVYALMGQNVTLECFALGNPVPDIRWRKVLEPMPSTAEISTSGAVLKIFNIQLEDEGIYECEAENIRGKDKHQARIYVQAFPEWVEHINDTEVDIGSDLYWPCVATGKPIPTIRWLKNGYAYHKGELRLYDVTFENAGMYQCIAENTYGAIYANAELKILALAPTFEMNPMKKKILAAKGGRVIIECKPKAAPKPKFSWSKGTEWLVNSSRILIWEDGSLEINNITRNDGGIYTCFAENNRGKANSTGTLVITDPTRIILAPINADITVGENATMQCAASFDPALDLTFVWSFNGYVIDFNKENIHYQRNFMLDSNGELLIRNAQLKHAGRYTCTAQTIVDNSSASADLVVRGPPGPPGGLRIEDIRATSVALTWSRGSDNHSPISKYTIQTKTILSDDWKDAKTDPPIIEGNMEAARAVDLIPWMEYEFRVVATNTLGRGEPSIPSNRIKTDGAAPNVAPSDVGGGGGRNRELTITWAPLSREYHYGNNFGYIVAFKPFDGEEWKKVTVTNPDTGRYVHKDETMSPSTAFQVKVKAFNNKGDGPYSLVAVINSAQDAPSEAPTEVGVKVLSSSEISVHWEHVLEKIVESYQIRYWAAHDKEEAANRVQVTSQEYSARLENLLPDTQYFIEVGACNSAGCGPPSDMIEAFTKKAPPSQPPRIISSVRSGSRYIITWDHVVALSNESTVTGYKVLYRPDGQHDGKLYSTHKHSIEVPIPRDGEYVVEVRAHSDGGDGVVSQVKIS

koff [1]: ~1.4 s⁻¹
B1: CD80 (protein)
chain: VIHVTKEVKEVATLSCGHNVSVEELAQTRIYWQKEKKMVLTMMSGDMNIWPEYKNRTIFDITNNLSIVILALRPSDEGTYECVVLKYEKDAFKREHLAEVTLSVKADFPTPSISDFEIPTSNIRRIICSTSGGFPEPHLSWLENGEELNAINTTVSQDPETELYAVSSKLDFNMTTNHSFMCLIKYGHLRVNQTFNWNTTKQEHFPDN

koff [3]: ~0.6 s⁻¹
B3: FCER2 (protein)
chain: DTTQSLKQLEERAARNVSQVSKNLESHHGDQMAQKSQSTQISQELEELRAEQQRLKSQDLELSWNLNGLQADLSSFKSQELNERNEASDLLERLREEVTKLRMELQVSSGFVCNTCPEKWINFQRKCYYFGKGTKQWVHARYACDDMEGQLVSIHSPEEQDFLTKHASHTGSWIGLRNLDLKGEFIWVDGSHVDYSNWAPGEPTSRSQGEDCVMMRGSGRWNDAFCDRKLGAWVCDRLATCTPPASEGSAESMGPDSRPDPDGRLPTPSAPLHS
modifications: propeptide assumed removed

koff [7]: ~0.1 s⁻¹
B7: VASN (receptor)
chain: CPSGCQCSQPQTVFCTARQGTTVPRDVPPDTVGLYVFENGITMLDAGSFAGLPGLQLLDLSQNQIASLPSGVFQPLANLSNLDLTANRLHEITNETFRGLRRLERLYLGKNRIRHIQPGAFDTLDRLLELKLQDNELRALPPLRLPRLLLLDLSHNSLLALEPGILDTANVEALRLAGLGLQQLDEGLFSRLRNLHDLDVSDNQLERVPPVIRGLRGLTRLRLAGNTRIAQLRPEDLAGLAALQELDVSNLSLQALPGDLSGLFPRLRLLAAARNPFNCVCPLSWFGPWVRESHVTLASPEETRCHFPPKNAGRLLLELDYADFGCPATTTTATVPTTRPVVREPTALSSSLAPTWLSPTEPATEAPSPPSTAPPTVGPVPQPQDCPPSTCLNGGTCHLGTRHHLACLCPEGFTGLYCESQMGQGTRPSPTPVTPRPPRSLTLGIEPVSPTSLRVGLQRYLQGSSVQLRSLRLTYRNLSGPDKRLVTLRLPASLAEYTVTQLRPNATYSVCVMPLGPGRVPEGEEACGEAHTPPAVHSNHAPVTQAREGNLP
modifications: biotin on the biotin-acceptor site (enzymatic, co-transfected BirA)

koff [8]: ~0.7 s⁻¹
B8: NRCAM (protein)
chain: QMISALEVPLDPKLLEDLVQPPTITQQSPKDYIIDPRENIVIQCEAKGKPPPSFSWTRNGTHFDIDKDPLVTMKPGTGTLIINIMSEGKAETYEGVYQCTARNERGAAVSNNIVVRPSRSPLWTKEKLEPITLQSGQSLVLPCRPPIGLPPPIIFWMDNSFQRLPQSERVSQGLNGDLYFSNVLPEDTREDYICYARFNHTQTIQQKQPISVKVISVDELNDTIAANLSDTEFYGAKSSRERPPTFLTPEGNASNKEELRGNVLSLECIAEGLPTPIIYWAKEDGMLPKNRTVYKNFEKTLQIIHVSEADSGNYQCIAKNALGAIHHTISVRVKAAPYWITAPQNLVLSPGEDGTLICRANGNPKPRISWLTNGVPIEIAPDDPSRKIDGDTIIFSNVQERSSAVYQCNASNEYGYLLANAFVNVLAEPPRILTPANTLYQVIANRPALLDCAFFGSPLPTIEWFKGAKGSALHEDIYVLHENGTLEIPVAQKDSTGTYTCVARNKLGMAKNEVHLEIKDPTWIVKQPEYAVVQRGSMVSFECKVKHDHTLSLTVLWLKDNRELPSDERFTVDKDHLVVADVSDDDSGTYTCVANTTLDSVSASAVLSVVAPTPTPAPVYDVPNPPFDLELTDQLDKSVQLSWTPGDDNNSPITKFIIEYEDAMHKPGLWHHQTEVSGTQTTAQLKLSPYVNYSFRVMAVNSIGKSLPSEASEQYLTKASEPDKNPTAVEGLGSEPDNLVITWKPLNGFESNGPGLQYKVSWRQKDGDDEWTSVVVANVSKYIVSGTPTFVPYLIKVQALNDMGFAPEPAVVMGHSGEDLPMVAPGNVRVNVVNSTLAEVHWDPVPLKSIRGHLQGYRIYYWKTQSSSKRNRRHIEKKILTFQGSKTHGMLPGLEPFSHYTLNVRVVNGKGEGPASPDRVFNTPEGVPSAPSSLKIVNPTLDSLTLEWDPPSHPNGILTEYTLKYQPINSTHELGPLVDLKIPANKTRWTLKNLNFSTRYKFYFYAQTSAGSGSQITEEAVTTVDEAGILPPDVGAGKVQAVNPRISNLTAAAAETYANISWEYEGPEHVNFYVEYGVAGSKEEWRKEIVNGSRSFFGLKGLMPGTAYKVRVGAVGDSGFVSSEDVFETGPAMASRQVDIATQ

The remaining lines, values behind:

B2: FCER2 (protein)
chain: B3 chain
koff [2]: ~0.01 s⁻¹

B4: TNR21 (protein)
chain: QPEQKASNLIGTYRHVDRATGQVLTCDKCPAGTYVSEHCTNTSLRVCSSCPVGTFTRHENGIEKCHDCSQPCPWPMIEKLPCAALTDRECTCPPGMFQSNATCAPHTVCPVGWGVRKKGTETEDVRCKQCARGTFSDVPSSVMKCKAYTDCLSQNLVVIKPGTKETDNVCGTLPSFSSSTSPSPGTAIFPRPEHMETHEVPSSTYVPKGMNSTESNSSASVRPKVLSSIQEGTVPDNTSSARGKEDVNKTLPNLQVVNHQQGPHHRHILKLLPSMEATGGEKSSTPIKGPKRGHPRQNLHKHFDINEH
koff [4]: ~2 s⁻¹

B5: MPZL1 (protein)
chain: SALEVYTPKEIFVANGTQGKLTCKFKSTSTTGGLTSVSWSFQPEGADTTVSFFHYSQGQVYLGNYPPFKDRISWAGDLDKKDASINIENMQFIHNGTYICDVKNPPDIVVQPGHIRLYVVEKENLPV
koff [5]: ~0.6 s⁻¹

B6: KIR2DL5A (receptor)
chain: HEGGQDKPLLSAWPSAVVPRGGHVTLLCRSRLGFTIFSLYKEDGVPVPELYNKIFWKSILMGPVTPAHAGTYRCRGSHPRSPIEWSAPSNPLVIVVTGLFGKPSLSAQPGPTVRTGENVTLSCSSRSSFDMYHLSREGRAHEPRLPAVPSVNGTFQADFPLGPATHGGTYTCFGSLHDSPYEWSDPSDPLLVSVTGNSSSSSSSPTEPSSKTGIRRH
modifications: biotin on the biotin-acceptor site (enzymatic, co-transfected BirA)
koff [6]: ~0.9 s⁻¹
